Test results from IntAct's records for PubMed 15784897.

Key:
lck_human LCK = lck_human LCK (UniProt P06239)
hck_human HCK = hck_human HCK (UniProt P08631)
fyn_human FYN = fyn_human FYN (UniProt P06241)
grb2_human GRB2 = grb2_human GRB2 (UniProt P62993)

Measured: effect of a mutation on the interaction

Chain of lck_human LCK (P06239 whole entry, looked up): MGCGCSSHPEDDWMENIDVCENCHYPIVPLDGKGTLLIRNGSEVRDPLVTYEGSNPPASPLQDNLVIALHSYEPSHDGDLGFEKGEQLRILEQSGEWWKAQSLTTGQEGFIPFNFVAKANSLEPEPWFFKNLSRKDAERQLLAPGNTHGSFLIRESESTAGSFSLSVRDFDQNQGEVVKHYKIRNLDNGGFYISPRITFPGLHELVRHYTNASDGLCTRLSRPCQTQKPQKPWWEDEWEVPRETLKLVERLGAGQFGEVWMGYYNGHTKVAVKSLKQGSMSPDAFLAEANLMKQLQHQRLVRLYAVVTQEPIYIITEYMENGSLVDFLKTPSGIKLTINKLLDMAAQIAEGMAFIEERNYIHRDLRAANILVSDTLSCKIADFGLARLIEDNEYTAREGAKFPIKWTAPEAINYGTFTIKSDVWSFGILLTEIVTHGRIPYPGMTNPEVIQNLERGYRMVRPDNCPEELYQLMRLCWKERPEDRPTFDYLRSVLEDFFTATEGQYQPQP
Chain of hck_human HCK (P08631 whole entry, looked up): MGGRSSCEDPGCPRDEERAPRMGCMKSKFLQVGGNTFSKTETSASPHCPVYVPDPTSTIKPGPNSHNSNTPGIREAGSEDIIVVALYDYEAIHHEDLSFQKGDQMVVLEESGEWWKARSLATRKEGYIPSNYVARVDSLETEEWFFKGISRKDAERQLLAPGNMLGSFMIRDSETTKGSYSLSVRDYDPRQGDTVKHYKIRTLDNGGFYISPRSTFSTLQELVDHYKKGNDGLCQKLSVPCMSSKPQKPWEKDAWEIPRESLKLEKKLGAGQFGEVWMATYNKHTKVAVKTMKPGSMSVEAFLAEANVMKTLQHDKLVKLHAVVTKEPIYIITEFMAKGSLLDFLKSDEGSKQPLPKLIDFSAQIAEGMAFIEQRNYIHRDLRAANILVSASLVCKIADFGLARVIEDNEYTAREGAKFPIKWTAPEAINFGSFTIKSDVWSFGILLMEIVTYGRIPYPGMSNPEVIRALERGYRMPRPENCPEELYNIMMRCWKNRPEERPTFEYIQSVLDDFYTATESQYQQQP
Chain of fyn_human FYN (P06241 whole entry, looked up): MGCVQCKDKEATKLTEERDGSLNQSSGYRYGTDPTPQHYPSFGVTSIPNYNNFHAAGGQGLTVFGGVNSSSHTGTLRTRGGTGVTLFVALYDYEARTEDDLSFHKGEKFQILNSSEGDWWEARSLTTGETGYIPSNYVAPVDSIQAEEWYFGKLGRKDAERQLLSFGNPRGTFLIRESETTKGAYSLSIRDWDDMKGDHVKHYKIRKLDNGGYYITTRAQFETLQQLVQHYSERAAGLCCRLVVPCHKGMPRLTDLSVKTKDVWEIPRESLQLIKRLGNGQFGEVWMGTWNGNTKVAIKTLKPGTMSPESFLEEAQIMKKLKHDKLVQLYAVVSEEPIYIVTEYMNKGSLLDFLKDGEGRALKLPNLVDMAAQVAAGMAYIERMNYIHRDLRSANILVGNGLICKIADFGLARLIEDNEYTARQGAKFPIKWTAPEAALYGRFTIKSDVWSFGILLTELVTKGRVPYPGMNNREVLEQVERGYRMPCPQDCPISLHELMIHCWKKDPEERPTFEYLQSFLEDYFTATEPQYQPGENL

Genome polyprotein (Hepatitis C virus genotype 1b (isolate Con1) (HCV)), Q9WMX2 P2322A;P2325A;P2326A
disrupting interaction: all assays above
